Residue numbers refer to the chain shown, from its start.
B1: L6-1B03 (protein)
chain: MGSRLDKSKVINSALELLNEVGIEGLTTRKLAQKLGVEQPTLYWHVKNKRALLDALAIEMMDRHATHICPLEGESWQDFLRNNAKSMRCALLSHRDGAKVCLGTRWTEQQYEAAENMLAFLCQQGFSLENALYAVSAVRVFTLGCVLFDQESQVAKEERETPTTASMPPLLRQAWELKDHQGAEPAFLFGLELIICGLEKQLKCESGS
modifications: Sulfonylurea responsive repressor
B2: L6-5H12 (protein)
chain: B1 chain with I68Y, Q109K, A113T, M117Q, V135M, S152L, L171V
modifications: Sulfonylurea responsive repressor
B3: L6-4D10: library L6 clone, parent of library L8 hits (protein)
chain: B1 chain with A65Q, I68Y, Q109K, A113S
modifications: Sulfonylurea responsive repressor
notes: library L6 clone, parent of library L8 hits
B4: L6-2C09 (protein)
chain: B1 chain with A65Q, I68Y, N83T, Q110L, A113T, M117Q, V135M, S152L
modifications: Sulfonylurea responsive repressor
B5: L6-3H02: SuR polypeptide, SEQ ID NO:94 (protein)
chain: B1 chain with I68Y, N83T, Q110H, A113S, L171V, D179V
modifications: Sulfonylurea responsive repressor
B6: L6-2D07 (protein)
chain: B1 chain with A65Q, I68F, N83T, A113T, V135M, L171V
modifications: Sulfonylurea responsive repressor
B7: L6-5G06 (protein)
chain: B1 chain with A65Q, I68Y, A113T, M117Q, S152L, A174G
modifications: Sulfonylurea responsive repressor
B8: L6-6F07 (protein)
chain: B1 chain with I68L, N83T, A113S, V135M
modifications: Sulfonylurea responsive repressor
B9: L6-5H06 (protein)
chain: B1 chain with A65Q, Q109K, A113T, S152L, L171V
modifications: Sulfonylurea responsive repressor
B10: L6-5F05 (protein)
chain: B1 chain with M117Q, S152L
modifications: Sulfonylurea responsive repressor
B11: L8-3F09 (protein)
chain: MARLDKSKVINSALELLNEVGIEGLTTRKLAQKLGVEQPTLYWHVKNKRALLDALAIEMMDRHQTHYSPLEGESWQDFLRNNAKSLRCALLSHRDGAKVCLGTRWTEQQYESAENMLAFLTQQGFSLENALYALTAVRVFTLGWVLFDQESQVAKEERETPTTDSMPPLLRQAWELKDHQGAEPAFLFGLELIIAGLEKQLKRESGS
modifications: Sulfonylurea responsive repressor
B12: L8-3B08 (protein)
chain: B11 chain with L134V, T135D, V137A, A195R
modifications: Sulfonylurea responsive repressor
B13: L8-1A04 (protein)
chain: B11 chain with S68L, L86C, C88N, S112T, T135E, V137A, W144A, A195S
modifications: Sulfonylurea responsive repressor
B14: L8-3E05 (protein)
chain: B11 chain with S68C, T135Q, V139I, W144C, A195R
modifications: Sulfonylurea responsive repressor
B15: L8-3D03 (protein)
chain: B11 chain with S68L, L86C, C88N, T135D, W144A, A195R, R203S
modifications: Sulfonylurea responsive repressor
B16: L8-1B12 (protein)
chain: B11 chain with L86W, T135E, R203A
modifications: Sulfonylurea responsive repressor
B17: L8-3A05 (protein)
chain: B11 chain with L86C, C88N, L134V, T135S, W144A, A195S, R203S
modifications: Sulfonylurea responsive repressor
B18: L8-2F12 (protein)
chain: B11 chain with L86C, C88N, T135Q, A195R, R203S
modifications: Sulfonylurea responsive repressor
B19: L8-3F02 (protein)
chain: B11 chain with L86C, C88R, T121C, L134V, T135S, V139I, W144A
modifications: Sulfonylurea responsive repressor

What follows are molecules tested on E. coli assay strain Km3. Conditions: M9 assay plates, 0.2 ppm chlorsulfuron, 48 hr at 30° C., ImageJ colony color intensity.
Format: cell-based
Procedure: Library L6 was assembled, rescued, ligated into pVER7314, transformed into E. coli KM3 and plated out onto LB carbenicillin/kanamycin, and carbenicillin only control media as before. Library plates were then picked into 42 384-well microtiter plates (˜16,000 clones) containing 60 μl LB carbenicillin (Cb) broth per well. After overnight growth at 37° C. the cultures were stamped onto M9 assay plates containing no inducer, 0.2 ppm, and 2.0 ppm chlorsulfuron as test inducer. Following incubation at 30° C. for ˜48 hrs, putative hits responding to chlorsulfuron treatment as determined by increased blue colony color were re-arrayed into six 96-well microtiter plates and used to stamp a fresh set of M9 assay plates to confirm the above results. For a more detailed analysis of the relative induction by chlorsulfuron, digital photographs were taken of the plates after various time points of incubation at 30° C. and colony color intensity measured using the digital image analysis freeware program ImageJ (Rasband, US National Institutes of Health, Bethesda, Md., USA, rsb.info.nih.gov/ij/, 1997-2007). […] From this analysis sequence-activity relationships were derived. […] Briefly, C at position 100, and Q at positions 108 and 109 strongly correlated with activation, while R at position 138, L at position 170, and A or G at position 173 were highly preferred in clones with the lowest background activity. […] This information will aid in the design of further libraries to improve responsiveness to chlorsulfuron.
Library L8 construction and screening. Fourth round shuffling incorporated the best diversity from Rd3 shuffling (BB1860) as well as computational diversity (Table 14). As diversity was very high the library oligo mix was spiked into the parental hit variant oligo mix (5, 10, and 25% mixes) to titer down the number of residue changes per clone. In addition, to varying residues for Cs activity, seven residues (C68, C86, C88, C121, C144, C195, and C203) were varied with TetR family phylogenetic substitutions in an attempt to reduce the number of cysteine residues in the repressor. The PCR assembled libraries were cloned Sac1/Asc1 into pVER7334. This plasmid encodes PBAD promoter controlled expression of a plant optimized TetR DNA binding domain fused to the wt ligand binding domain of TetR(B) encoded by native Tn10 sequence on a Sac1 to Asc1 fragment. Approximately 15,000 clones were screened for blue colony color on the M9 Xgal assay plates +/−200 ppb Chlorsulfuron (Cs). Clones were ranked by ratio of color with inducer after 24 hrs incubation over colony color without inducer for 48 hrs of incubation. The sequence trend in the overall larger population of hits (first re-array) was that L55, R104, W105 and L170 were maintained while the C144A substitution was highly preferred. Sequence trends within the hit population were then noted with respect to repression, induction and fold induction (which corrects for leakiness).
Mutagenesis reactions were transformed into library strain Km3 and 96 colonies tested for substitution by DNA sequence analysis. Substitutions representing each possible residue at each position were then re-arrayed in triplicate onto M9 X-gal assay plates with 0, 20 and 200 ppb Chlorsulfuron. Plates were incubated at 37° C. for 24 and 48 hrs prior to imaging. Residue substitutions were then ranked by activation (emphasis on 20 ppb Cs) and repression characteristics (emphasis on 48 hr time point). The mutation with the greatest impact on activity was substitution of residue N82 to phenylalanine or tyrosine. […] All other preferred substitutions shown in Table 18 either improved repression or improved sensitivity to inducer without compromising repressor function. Certain residues were indispensible to function such as R104, W105, and W174 as substitutions were not allowed. Other residue positions such as R138 and K177 were also flagged as critical since functional substitutions were extremely limited. […]

| Molecule | 0.2 ppm 48 hr (colony color intensity) |
| --- | --- |
| B1 | 30.0 |
| B2 | 23.7 |
| B3 | 18.4 |
| B4 | 13.6 |
| B5 | 15.8 |
| B6 | 20.0 |
| B7 | 34.4 |
| B8 | 11.6 |
| B9 | 13.7 |
| B10 | 22.0 |

Same assay, conditions: M9 assay plates, no inducer, 84 hr at 30° C., ImageJ colony color intensity

| Molecule | Control 84 hr (colony color intensity, background) |
| --- | --- |
| B1 | 6.6 |
| B2 | 5.7 |
| B3 | 5.0 |
| B4 | 5.2 |
| B5 | 5.6 |
| B6 | 5.8 |
| B7 | 7.0 |
| B8 | 5.1 |
| B9 | 5.1 |
| B10 | 5.4 |

Same assay, conditions: library L8 hits; M9 Xgal colony assay; 200 ppb Chlorsulfuron; 24 hrs

| Molecule | IND = induction with 200 ppb Cs at 24 hrs (blue colony color intensity thru ImageJ analysis) |
| --- | --- |
| B11 | 5.6 |
| B12 | 13.0 |
| B13 | 12.2 |
| B14 | 1.4 |
| B15 | 5.9 |
| B16 | 12.5 |
| B17 | 0.3 |
| B18 | 2.7 |
| B19 | 3.4 |
| B3 | 0.2 |

Same assay, conditions: library L8 hits; M9 Xgal colony assay; ratio IND (200 ppb Cs, 24 hrs) / REP (48 hrs)

| Molecule | F. IND = fold induction: induction with 200 ppb Cs at 24 hrs/repression at 48 hrs |
| --- | --- |
| B11 | 9.7 |
| B12 | 6.1 |
| B13 | 6.2 |
| B14 | 3.4 |
| B15 | 4.9 |
| B16 | 5.1 |
| B17 | 3.3 |
| B18 | 3.6 |
| B19 | 3.5 |
| B3 | 0.4 |

Same assay, conditions: library L8 hits; M9 Xgal colony assay; without inducer; 48 hrs

| Molecule | REP = repression measured without inducer after 48 hrs (blue colony color intensity thru ImageJ analysis) |
| --- | --- |
| B11 | 0.6 |
| B12 | 2.1 |
| B13 | 2.0 |
| B14 | 0.4 |
| B15 | 1.2 |
| B16 | 2.4 |
| B17 | 0.1 |
| B18 | 0.7 |
| B19 | 1.0 |
| B3 | 0.6 |

Same assay, conditions: ratio of colony color with 0.2 ppm chlorsulfuron at 48 hr over no-inducer control at 84 hr

| Molecule | 0.2 ppm 48 hr/Control 84 hr |
| --- | --- |
| B1 | 4.6 |
| B2 | 4.2 |
| B3 | 3.7 |
| B4 | 2.6 |
| B5 | 2.8 |
| B6 | 3.4 |
| B7 | 4.9 |
| B8 | 2.3 |
| B9 | 2.7 |
| B10 | 4.1 |

Reference: patent US20160152995A1, “METHODS AND COMPOSITIONS TO IMPROVE THE SPREAD OF CHEMICAL SIGNALS IN PLANTS” (PIONEER HI-BRED INTERNATIONAL, INC., priority 2013, published 2016)
